Source: paper PMC3241647 (Nucleic Acids Research, 2011)

B1: Bacillus subtilis Zur H90A (natural protein)
chain: not shown
B2: Bacillus subtilis Zur H89A (natural protein)
chain: not shown
B3: Bacillus subtilis Zur C84S (natural protein)
chain: not shown

Target: the molecule itself
Experiment: SEC

Protein	binding result	stoichiometry N
B1	binds	
B2	binds	
B3		2
